Assay results as given in publication PMC4110903 (Methods in enzymology, 2014).

Molecular target: T1, MBP-tagged full length human HSPC300 (human, UniProt Q8WUW1 1-75)
T1 sequence (looked up): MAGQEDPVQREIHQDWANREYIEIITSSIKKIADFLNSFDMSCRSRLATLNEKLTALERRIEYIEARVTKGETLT
Test: reconstitution and co-elution on anion exchange chromatography

- binding result: binds
B1: MBP-tagged WAVE217: human WAVE1 (1-217)-(GGS)6-(485-559) (domain or fragment)
chain: MPLVKRNIDPRHLCHTALPRGIKNELECVTNISLANIIRQLSSLSKYAEDIFGELFNEAHSFSFRVNSLQERVDRLSVSVTQLDPKEEELSLQDITMRKAFRSSTIQDQQLFDRKTLPIPLQETYDVCEQPPPLNILTPYRDDGKEGLKFYTNPSYFFDLWKEKMLQDTEDKRKEKRKQKQKNLDRPHEPEKVPRAPHDRRREWQKLAQGPELAEDDGGSGGSGGSGGSGGSGGSKRHPSTLPVISDARSVLLEAIRKGIQLRKVEEQREQEAKHERIENDVATILSRRIAVEYSDSEDDSEFDEVDWLE
